Here are results for two molecules from patent US20240262878A1, “PHOTOACTIVATABLE GASDERMIN PROTEINS” (THE BOARD OF TRUSTEES OF THE UNIVERSITY OF ILLINOIS, priority 2021, published 2024).

Entries after “also recorded” stand apart in the source; their conditions may differ.

The subject of data set [1] is Hela cells. Briefly: Optogenetic activation of PhoDer, membrane-targeted jRCaMP1b calcium flare imaging and fluctuation analysis. Format: cell-based.
Data set [2] has as its system RAW264.7 and mouse bone marrow-derived macrophages (BMDM). Briefly: Optogenetic activation of PhoDer in transiently transfected macrophages, calcium response. Format: cell-based. The settings on record: transiently transfected RAW264.7 and mouse BMDM. The procedure: Cell Culture. HeLa and RAW264.7 cells were maintained in Dulbecco's Modified Eagle Medium (DMEM) medium supplemented with 10% fetal bovine serum (FBS) and 1% penicillin and streptomycin. Cells were transfected at 50%-70% confluency using LIPOFECTAMINE® 2000 transfection reagent and incubated for 24 hours before imaging. Cells were never serum-starved. To examine endogenous inflammatory activation, RAW264.7 cells were treated with 100 ng/μL lipopolysaccharide (LPS, Invivogen) at the beginning of each experiment. Pretreatment to bias membrane composition by phosphatidylinositol 4,5-bisphosphate (PIP2) modifying enzymes was performed by incubating Hela cells in Hanks' Balanced Salt Solution (HBSS) buffer with inhibitors at 37° C. for 10 minutes to prior imaging at the following concentrations: for phosphoinositide 3-kinase (PI3K), cells were treated 10 μM wortmannin (Tocris); and for phospholipase C (PLC), cells were treated with 10 μM U73122 (Tocris). Cells were removed from the incubator and allowed to come to thermal equilibrium before being imaged in HBSS buffer at room temperature.
Fluorescence Imaging, Optogenetic Activation, and Post-Processing. […]

Data set [3] relates to Hela cells. Briefly: Modulating molecular transport of a cell by light activation of PhoDer (GFP efflux, phalloidin influx, antibody delivery). Format: cell-based. The procedure: Using the PhoDer protein, it was determined whether a large molecule, i.e., an impermeable dye, fluorescent protein or an IgG antibody, could be transported into or out of a living cell via light-inducible activation of the PhoDer construct.
GFP Efflux. Cells expressing GFP were transfected with the PhoDer protein and illuminated intermittently for 1 hour. Over time the gasdermin pore grew larger and GFP fluorescence was captured on a fluorescence microscope using a 40× objective.
Phalloidin Influx. Phalloidin is a cell impermeable dye used in the labeling of F-actin. Cells were transfected with the PhoDer protein and contacted with phalloidin in the cell medium. The cells were subsequently illuminated and permeation of the phalloidin was monitored. […] As such, control gasdermin pore formation was capable of mediating cargo delivery in the absence of cell death.
Antibody Delivery. Hela cells expressing PhoDer were placed in medium containing a fluorescently tagged anti-tubulin monoclonal IgG antibody (˜150 kDa, ˜14 nm in size). Before exposure to light, antibody fluorescence was evident in the medium. […] Super-resolution imaging of the cells was carried out using STORM (Stochastic Optical Reconstruction Microscopy). […] Advantageously, the cells remained intact and alive thereby allowing for analysis of cytoskeletal tubulin and nuclear tubulin. […] Given that cytoskeletal and nuclear tubulin have distinct functions apart from their structural roles in forming microtubules, delivery of the anti-tubulin antibody via the present invention allows for further subcellular analysis of tubulin in living cells.

The subject of data set [4] is living endothelial cells. Briefly: Whole-cell patching after injection of activated recombinant GSDMD. In kind it is cell-based. The settings on record: injection of activated protein, n=15. The source says:
To further address whether the calcium dynamics primarily reflected that of GSDMD pores, whole-cell patching was directly recorded in living endothelial cells, which also undergo pyroptosis. […] Additionally, as befitting a large pore, the GSDMD pore opening/closing dynamics were not restricted to calcium observations. Calcium flares were visualized, which occurred in coincidence with the transient flux of a large fluorogenic molecule, within the same spatiotemporal context in living cells.

In data set [5] the target is T1, GSDMD pores (Homo sapiens, UniProt P57764).
T1 construct: His-SUMO (N, cleaved yes); made in house; host or cells: E. coli BL21
T1 sequence (P57764 1-275 limits assumed): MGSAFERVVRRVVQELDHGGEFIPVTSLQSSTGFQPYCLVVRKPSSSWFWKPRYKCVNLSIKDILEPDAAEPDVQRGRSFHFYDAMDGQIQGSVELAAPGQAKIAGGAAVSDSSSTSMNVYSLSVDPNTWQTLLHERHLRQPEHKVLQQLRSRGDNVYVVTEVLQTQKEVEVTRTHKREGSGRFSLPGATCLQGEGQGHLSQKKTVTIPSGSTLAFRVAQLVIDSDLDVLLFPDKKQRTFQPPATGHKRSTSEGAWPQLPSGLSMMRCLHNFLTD
Briefly: Free-standing planar lipid bilayer electrophysiology of reconstituted GSDMD pores. In kind it is biochemical. The procedure:
Protein Purification. Plasmid encoding the full length human GSDMD with a N-terminal His-SUMO tag was transformed into E. coli BL21 strain. The cultures were grown at 37° C. until OD600 0.8, and protein expression was induced with 0.2 mM isopropyl β-D-1-thiogalactopyranoside (IPTG) overnight at 20° C. The cells were harvested by centrifugation and the pellet was resuspended in 20 mM Tris buffer, pH 7.5, 50 mM NaCl, 5 mM imidazole, 20 mM MgCl2, 10 mM KCl, 0.5 mM TCEP, 0.1 mM protease inhibitor, and DNase I. After resuspension, cells were disrupted by high-pressure and centrifuged at 30,000 g at 4° C. for 1 hour. The supernatant was incubated for 2 hours at room temperature with pre-equilibrated Ni-NTA affinity resin (Thermo Scientific) and then passed through a column for gravity flow purification. The column was washed with 20 column volumes of resuspension buffer, and the fusion protein was eluted with three column volumes of the same buffer with 250 mM imidazole. SUMO-tag cleavage was achieved by addition of ULP1 protease to the solution and subsequent dialysis overnight at 4° C. against 20 mM Tris buffer, pH 7.5, 50 mM NaCl, 0.5 mM TCEP. GSDMD was eluted from a second round of purification through pre-equilibrated Ni-NTA affinity resin. The protein was further purified by HI-TRAP® Q ion-exchange resin and a SUPERDEX® 75 gel filtration column (GE Healthcare) pre-equilibrated with 20 mM Tris buffer, pH 7.5, 50 mM NaCl, 0.5 mM TCEP. The purified protein was concentrated to 20 mg/ml and frozen at −80° C.
Free-Standing Lipid Bilayer Formation and Electrophysiology. For the lipid bilayer, a bilayer chamber with a polystyrene cuvette was used. In addition, the folding method, which is based on Langmuir-Blodgett film formation (Kroemer et al. (2009) Cell Death Differ. 16:3-11; Weavers et al. (2016) Cell 165:1658-1671) was employed. Monolayers that were spread in the air-water interface were faced at the chamber hole (Bergsbaken & Fink (2009) Nat. Rev. Microbiol. 7:99-109; Mulvihill et al. (2018) EMBO J. 37 (14): e98321). In brief, a shallow trough made of polystyrene was filled with recording solution, and the surface was separated into two parts by one of the cuvette walls. Bilayers were formed by monolayers of 1:3 1-palmitoyl-2-oleoylphosphatidylethanolamine (POPE)/1-palmitoyl-2-oleoylphosphatidylcholine (POPC) (Avanti-lipids) in pentane; where appropriate, phosphoinositides of the indicated headgroup were introduced with di-oleoyl (18:1) fatty acid chains at 10% relative concentration. A small amount of phospholipid, dispersed in pentane solution, was dropped on one of the water surfaces and as pentane evaporated, the lipid molecules remained at the air-water interface. The movements of the lipid molecules became less vigorous, and eventually the lipid molecules packed together to form a monolayer. For the formation of the planar lipid bilayer by the folding method, a monolayer was formed at the air-water interface in each compartment. Upon raising the recording solution level by adding more solution, the monolayer ran up on the cuvette surface and passed through the hole, where the two monolayers from both sides encountered each other and formed a bilayer. The membrane formed by this method has been referred to as a “solvent-free” membrane. The advantage of this method over other methods, like the painting method, is the capacity to form an asymmetrical membrane in which the lipid composition of either leaflet is arbitrarily defined (Kayagaki et al. (2015) Nature 526: 666-671). Once formed, the membrane retains this asymmetry for a long time because the flip-flop or exchange of the lipid molecules between both leaflets of the membrane is very slow.
For incorporation of the GSDMD into the lipid bilayer, 2 μM of the purified GSDMD protein was added to the cis side chamber along with 2 μM of caspase 1. The specific membrane capacitance of the membrane formed by the folding method was 0.6-0.8 μF/cm^2. […]

B1: PhoDer: optogenetically activatable human GSDMD with photocleavable linker between N- and C-terminal domains, SEQ ID NO: 33 (protein)
chain: MGSAFERVVRRVVQELDHGGEFIPVTSLQSSTGFQPYCLVVRKPSSSWFWKPRYKCVNLSIKDILEPDAAEPDVQRGRSFHFYDAMDGQIQGSVELAAPGQAKIAGGAAVSDSSSTSMNVYSLSVDPNTWQTLLHERHLRQPEHKVLQQLRSRGDNVYVVTEVLQTQKEVEVTRTHKREGSGRFSLPGATCLQGEGQGHLSQKKTVTIPSGSTLAFRVAQLVIDSDLDVLLFPDKKQRTFQPPATGHKRSTSEGAWPQLPSGLSMMRCLHNGGGSVIPDYFKQSFPEGYSWERSMTYEDGGICIATNDITMEGDSFINKIHFKGTNFPPNGPVMQKRTVGWEASTEKMYERDGVLKGDVKMKLLLKGGGHYRCDYRTTYKVKQKPVKLPDYHFVDHRIEILSHDKDYNKVKLYEHAVARNSTDSMDELYKGGSGGMVSKGEETITSVIKPDMKNKLRMEGNVNGHAFVIEGEGSGKPFEGIQTIDLEVKEGAPLPFAYDILTTAFHYGNRVFTKYPRGGGVPAEGAFTEDFQGLRAEVETISKELELLDRELCQLLLEGLEGVLRDQLALRALEEALEQGQSLGPVEPLDGPAGAVLECLVLSSGMLVPELAIPVVYLLGALTMLSETQHKLLAEALESQTLLGPLELVGSLLEQSAPWQERSTMSLPPGLLGNSWGEGAPAWVLLDECGLELGEDTPHVCWEPQAQGRMCALYASLALLSGLSQEPH
modifications: photocleavable linker
Regarding B1, in data set [1], the “average circularity (minor/major radii ratio) of the flares” value is on record as 0.75; the “pores that persisted after the mean open time and reopened” value is around 57%. The “calcium response upon optogenetic activation” value in data set [1] (Hela cells expressing PhoDer, membrane-targeted jRCaMP1b) is “caused spontaneous calcium flares at sporadic locations on the plasma membrane”. Also, in data set [1] (average, n=21 pores), the “time in which calcium flares maximized” value was found to be 0.35 min. In data set [1] (mean of n=21, R^2=0.996), the “cooperative coefficient of pore closing” value is 0.73. Also, in data set [1] (n=21 pores), the “average time pores were open” value came to 1.55 min and the “mean diameter reached by calcium flares” value was around 10 μm. For the same molecule, the “calcium response upon optogenetic activation” value in data set [2] is reported as “initiated clearly localized transient calcium flares”. For the same molecule, in data set [3], the “time cells observed intact and adherent after antibody delivery” value was “at least 24 hours”. In data set [3] (Hela cells, about 5 minute blue-light activation), the “delivery of fluorescently tagged anti-tubulin monoclonal IgG antibody” value is “the fluorescent antibody was delivered into the interior of the cell”. Also, the “cell lysis after phalloidin delivery (calcium imaging)” value in data set [3] (blue-light activation) is “did not lyse”. In addition, in data set [3] (blue-light activation, phalloidin in cell medium), the “phalloidin influx, F-actin labeling” value was “allowed phalloidin to permeate and bind F-actin; also recorded: delivers actin labels into living cells”. For the same molecule, the GFP efflux result in data set [3] (cells expressing GFP, illuminated intermittently for 1 hour) is recorded as “GFP left the cell”.

B2: GSDMD: purified recombinant full length human GSDMD, activated by caspase-1 (protein, UniProt P57764 1-484, looked up)
chain: MGSAFERVVRRVVQELDHGGEFIPVTSLQSSTGFQPYCLVVRKPSSSWFWKPRYKCVNLSIKDILEPDAAEPDVQRGRSFHFYDAMDGQIQGSVELAAPGQAKIAGGAAVSDSSSTSMNVYSLSVDPNTWQTLLHERHLRQPEHKVLQQLRSRGDNVYVVTEVLQTQKEVEVTRTHKREGSGRFSLPGATCLQGEGQGHLSQKKTVTIPSGSTLAFRVAQLVIDSDLDVLLFPDKKQRTFQPPATGHKRSTSEGAWPQLPSGLSMMRCLHNFLTDGVPAEGAFTEDFQGLRAEVETISKELELLDRELCQLLLEGLEGVLRDQLALRALEEALEQGQSLGPVEPLDGPAGAVLECLVLSSGMLVPELAIPVVYLLGALTMLSETQHKLLAEALESQTLLGPLELVGSLLEQSAPWQERSTMSLPPGLLGNSWGEGAPAWVLLDECGLELGEDTPHVCWEPQAQGRMCALYASLALLSGLSQEPH
modifications: full-length activated by caspase-1
Regarding B2, the “single pore currents, whole-cell patching” value in data set [4] is “showed single pore currents”. Besides, in data set [5] (POPE/POPC baseline bilayer), the “mean current of single pores” value is on record as 32 pA and the open probability was around 0.2. In data set [5] (POPE/POPC baseline bilayer, GSDMD + caspase-1, n=20 bilayers), the “time to micro-currents (protein-membrane interaction) after protein introduction” value is 27.2 ± 2.7 min. The “ion selectivity of pores” value in data set [5] (ramp protocol, dual rectification) is reported as “not inherently ion-selective”.
